This data set relates to [H][C@]12[C@H](OC(=O)c3ccccc3)[C@]3(O)C[C@H](OC(=O)[C@H](O)[C@@H](NC(=O)c4ccccc4)c4ccccc4)C(C)=C([C@@H](O)C(=O)[C@]1(C)[C@@H](O[C@@H]1OC[C@@H](O)[C@H](O)[C@H]1O)C[C@@]1([H])OC[C@@]21OC(C)=O)C3(C)C. Kind of data set: HPLC of 10-deacetyltaxol formation, Michaelis-Menten nonlinear fit. In kind it is biochemical, Lentinula edodes. Particulars: XDT 0.039–5.0 mmol/L; other conditions as in earlier report. From the text: HPLC of 10-deacetyltaxol formation, Michaelis-Menten nonlinear fit on LXYL-P1−1
As for LXYL-P1−1 (Lentinula edodes), the Km is 0.50 (±0.01) mM; the Vmax – broadly, the rate approached at saturating substrate – came out at 3.42 µM/min; the kcat (usually the maximal rate divided by the concentration of active sites) is 2.05 ± 0.02 s⁻¹; the kcat/Km (commonly the turnover number divided by the Michaelis constant) was 4100 M⁻¹ s⁻¹.
As for LXYL-P1−1 (Lentinula edodes; I368E), the Km is given as 0.42 (±0.01) mM, the Vmax stood at 4.02 µM/min, the kcat amounted to 2.41 ± 0.08 s⁻¹ and the kcat/Km came out at 5740 M⁻¹ s⁻¹.
As to “LXYL-P1−1 (Lentinula edodes; I368E/V91S)”, the Km is given as 0.20 (±0.01) mM, the Vmax stood at 3.43 µM/min and the kcat came out at 2.06 ± 0.01 s⁻¹.
Turning to LXYL-P1−1 (Lentinula edodes; I368T), the Km is recorded as 0.35 (±0.10) mM, the Vmax is 2.6 µM/min, the kcat amounted to 1.56 ± 0.34 s⁻¹ and the kcat/Km was found to be 4460 M⁻¹ s⁻¹.
